Assay results reported in patent publication US20220411517A1 (LEO PHARMA A S, published 2022).
Substitutions are numbered along the chain they refer to.

B1: R001032 (1A05) (antibody, human IgG1, kappa, V domains shown)
VH: LEQSGGGAEGGLVKPGGSLELCCKASGFSLSTSYWRCWVRQAPGKGLEWIGCIYAGSGDVTYYANWVNGRFTLSRDIDQSTGCLQLNSLTAADTAMYYCASGVGFGYFNLWGQGTLVTVSS
VL: ALVMTQTPSPVSAAVGGTVTINCQASEDIYSNLAWFQQKPGQPPKLLIYDASTLASGVPSRFSGSGSGTEFTLTISGLQSDDAATYYCLGVYTHISADNAFGGGTEVVVKR
notes: Rabbit variable domains of prior art 1A05 on human IgG1 kappa constant regions with AEASS; also called P013.S.01.B.A05
B2: Y024149_h_IgG1f_AEASS (antibody, V domains shown)
VH: EVQLVESGGGLVQPGGSLRLSCAASGGTFGGSAMHWVRQAPGKGLVWVSRILTYGGIATYAESVKGRFTISRDNAKNTLYLQMNSLRAEDTAVYYCARGSSEYPKFDIWGQGTLVTVSS
VL: DIQMTQSPSTLSASVGDRVTITCRASQSISSWLAWYQQKPGKAPKLLIYDASSLESGVPSRFSGSGSGTEFTLTISSLQPEDFATYYCHQLLIYPHTFGQGTKVEIKR
notes: Human IgG1f with AEASS effector-silencing residues, kappa light chain
B3: Y024148_h_FabCys-AviH (Fab, V domains shown)
VH: B2 VH with F29I, M34V, G55S, G56S, I57T, A58T, T59Q
VL: B2 VL
notes: Disulphide-linked Fab with Avi and His tags; also called Y024148 in FabCys-AviHis format
B4: Y024149_h_FabCys-AviH (Fab, V domains shown)
VH: B2 VH
VL: B2 VL
notes: Disulphide-linked Fab with Avi and His tags; also called Y024149 in FabCys-AviHis format

Columns and labels:
[1] = molecular target: T1, human IL1RAcP domain 1/2 (AG-12337) (human); test: ELISA on directly coated human IL-1RAcP domain 1/2 (AG-12337), IgG1f_AEASS titrated, S/BG
T1 construct: also called domain 1/2 of human IL-1RAcP

[2] = molecular target: T2, hIL-1RAP(1-367)_F-chLys_Avi (human, biotinylated (Avi tag) in SPR and ELISA binning; unlabeled in SET); test: ELISA on human IL-1RAcP (AG-12210), IgG1f_AEASS titrated 0.007-200 nM, AP-coupled secondary antibody with AttoPhos, signal over background (S/BG)
T2 construct: also called human IL-1RAcP (AG-12210)
Description: (§1) Bound antibodies were detected using respective alkaline-phosphatase (AP) coupled secondary antibodies in combination with ‘AttoPhos’ fluorescence substrate. Multiple washing steps have been performed in between individual assay steps.

[3] = molecular target: T2, hIL-1RAP(1-367)_F-chLys_Avi; test: solution equilibrium titration (SET), ECL read-out, IgG
Protocol: (§2) MSD SulfoTAG™ NHS-Ester (Meso Scale Diagnostics) according to the manufacturer's instructions. […] Serial dilutions of unlabeled antigen were prepared, starting with a concentration at least 10 times higher than the expected KD. Wells without antigen were used to determine Bₘₐₓ values;
(§3) wells containing only assay buffer were used to determine background. […] MSD plates were coated with antigen on standard plates (30 μL per well). After washing the plate with PBS with 0.05% Tween 20, the equilibrated samples were transferred to the plates and incubated for 20 min. […] After washing the MSD plate and adding 30 μL/well MSD Read Buffer T with surfactant, electrochemiluminescence signals were detected using a MESO SECTOR S 600 (Meso Scale Diagnostics).
(§4) The data was evaluated with XLfit (IDBS) software applying customized fitting models.

human IL-1RAcP on cells [4] = molecular target: T3, human IL-1RAcP on cells (human, UniProt Q9NPH3 21-570); test: FACS on Flp-In CHO cells over-expressing human IL-1RAcP, IgG1f_AEASS titrated 1e-12 to 2e-7 M, median FL2-H over background
T3 construct: whole, on cells; also called human IL-1RAcP over-expressing CHO cells; endogenous IL-1RAcP on primary human dermal fibroblasts, keratinocytes, PBMCs, whole blood, skin

[5] = molecular target: T4, cyIL-1RAP(1-367)_F-chLys_Avi (cynomolgus, biotinylated (Avi tag) in SPR; unlabeled in SET); test: solution equilibrium titration (SET), ECL read-out, IgG
T4 construct: cynomolgus IL-1RAcP (21-367) is UniProt A0A2K5X5J5; also called cynomolgus IL-1RAcP (AG-12211)
Protocol: as §2, §3, §4

[6] = molecular target: T4, cyIL-1RAP(1-367)_F-chLys_Avi; test: ELISA on cynomolgus IL-1RAcP (AG-12211), IgG1f_AEASS titrated 0.007-200 nM, AP-coupled secondary antibody with AttoPhos, signal over background (S/BG)
Description: as §1

[7] = molecular target: T5, mouse (AG-12212) IL-1RAcP (mouse, UniProt Q61730 21-367, limits assumed); test: ELISA in Fc-capture mode of the IgGs, mouse IL-1RAcP (AG-12212), S/BG
T5 construct: Recombinant tagged antigen; also called recombinant mouse IL-1RAcP; mouse IL-1RAP
Description: as §1

[8] = molecular target: T6, human IL1RAcP domain 1 (AG-12335) (human); test: ELISA on directly coated human IL-1RAcP domain 1 (AG-12335), IgG titrated, S/BG
T6 construct: also called domain 1 of human IL-1RAcP
T6 chain: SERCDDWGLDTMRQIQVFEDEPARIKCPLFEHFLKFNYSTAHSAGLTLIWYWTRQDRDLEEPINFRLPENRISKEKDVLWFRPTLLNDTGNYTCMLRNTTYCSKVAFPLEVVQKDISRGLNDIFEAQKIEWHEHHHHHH
Protocol: All were assessed with direct coating of the antigen. […] An anti-His antibody served as positive control.

[9] = molecular target: T7, human IL1RAcP domain 3 (AG-12127) (human); test: ELISA on directly coated human IL-1RAcP domain 3 (AG-12127), IgG titrated, S/BG
T7 construct: also called domain 3 of human IL-1RAcP
T7 chain: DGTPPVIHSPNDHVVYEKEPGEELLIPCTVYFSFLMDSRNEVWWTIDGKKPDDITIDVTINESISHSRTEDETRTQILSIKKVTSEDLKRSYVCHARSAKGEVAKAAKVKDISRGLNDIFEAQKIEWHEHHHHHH

human IL-1RAcP on cells [10] = molecular target: T3, human IL-1RAcP on cells; test: cell-based or functional assay
[11] = molecular target: T8, cynomolgus IL-1RAcP on cells (cynomolgus, UniProt A0A2K5X5J5 21-570); test: cell-based or functional assay
human IL-1RAcP on cells [12] = molecular target: T3, human IL-1RAcP on cells; test: cell-based or functional assay; remark: listed apart in the source
[13] = molecular target: T8, cynomolgus IL-1RAcP on cells; test: cell-based or functional assay; remark: listed apart in the source
[14] = molecular target: T2, hIL-1RAP(1-367)_F-chLys_Avi; test: SET, ratio of KD values
[15] = molecular target: T4, cyIL-1RAP(1-367)_F-chLys_Avi; test: SET, ratio of KD values
recombinant rat IL-1RAcP = recombinant rat IL-1RAcP (rat, UniProt Q63621 21-367, limits assumed); test: ELISA (FIG. 1-3 cited)
human IL-1RAcP on cells [16] = molecular target: T3, human IL-1RAcP on cells; test: flow cytometry on primary human dermal fibroblasts expressing endogenous IL-1RAcP (FIG. 4-1)
Protocol: Cell suspensions were transferred into microtiter plates and antibody samples were added followed by subsequent incubation of plates at 4° C. for 3 hours. Following incubation, cells were washed several time with FACS buffer.

[17] = molecular target: T5, mouse (AG-12212) IL-1RAcP; test: ELISA, Fc-capture mode of the IgGs (FIG. 1-3)
Description: as §1

[18] = molecular target: T2, hIL-1RAP(1-367)_F-chLys_Avi; test: ELISA binning; competitor: coated CAN04 FabCys-AviHis; 1.5 nM biotinylated human IL-1RAcP (AG-12210) pre-incubated with the titrated Fab; captured IL-1RAcP detected with streptavidin-AP
Protocol: (§5) Epitope binning was performed using an ELISA-based competition assay. The experiments were performed using either IgG1f_AEASS or FabCys-AviHis. Antibodies were diluted to three (3) nM (for IgGs) or to 20 nM (in case of Fabs) in PBS. […] The next day 90 μL/well blocking solution (5% BSA in PBS) was added to the plate followed by an incubation at RT for at least 1 h. During incubation, the competing antibodies, including reference and negative control antibodies, were diluted in assay buffer (1xPBS, 0.5% BSA, 0.02% Tween). […] Following the incubation of the blocking solution, the ELISA plates were washed 3× with PBST. Subsequently, 20 μl/well of the prepared antibody/antigen solution was transferred to the wells and incubated for 30 min with gentle agitation. Subsequently, plates were washed 3× using PBS-T.
(§6) For detection 20 μl of a prepared streptavidin-alkaline phosphatase conjugate solution was added to the wells in order to detect bound biotinylated human IL-1RAcP. Incubation happened for 30 min with gentle agitation. Following the incubation with streptavidin-alkaline phosphatase conjugate, assay plates were washed 5× with PBS-T. Then 20 μl of AttoPhos substrate (diluted 1:5 in H₂O) was added to the wells. Plates were incubated for 10 min at RT and readout happened using a Tecan M1000 Pro Reader.
(§7) Every graph represents an individual first antibody in the FabCys-AviHis format coated on the surface. […] Subsequently, preformed antigen antibody complex was added to the respective wells with the surface coated first antibody. Detection happened via the biotin of IL-1RAcP using a streptavidin-alkaline phosphatase conjugate.

[19] = molecular target: T4, cyIL-1RAP(1-367)_F-chLys_Avi; test: SPR (Biacore), biotinylated antigen captured, FabCys-AviHis as analyte, 1:1 fit; comment: Koff approaching assay limit
Protocol: (§8) Approximately 3000 RU capture reagent was bound. This surface was used to load biotinylated antigen to generate a low-density surface for subsequent kinetic characterization (approx. 60-100 RU antigen loaded). […] After injecting the last and highest analyte concentration, a long dissociation phase was recorded. […] A blank injection of assay buffer (HBS-EP+) following the same injection pattern as described above was recorded and subtracted from specific sensorgrams during analysis (double referencing). At the end of each cycle, the sensor was regenerated with one 120 s injection of 6 M guanidine hydrochloride in 250 mM NaOH, which completely removed capture reagent with loaded biotinylated antigen and bound Fab fragments. The obtained sensorgrams were fitted to a monovalent binding model using Biacore Insight Evaluation Software. The obtained values for rate constants kₒₙ and koff were used to calculate KD.

[20] = molecular target: T2, hIL-1RAP(1-367)_F-chLys_Avi; test: SPR (Biacore), biotinylated antigen captured, FabCys-AviHis as analyte, 1:1 fit
Protocol: as §8

[21] = molecular target: T2, hIL-1RAP(1-367)_F-chLys_Avi; test: ELISA binning; competitor: coated Y024148 FabCys-AviHis; 1.5 nM biotinylated human IL-1RAcP (AG-12210) pre-incubated with the titrated Fab; captured IL-1RAcP detected with streptavidin-AP
Protocol: as §5
For detection 20 μl of a prepared streptavidin-alkaline phosphatase conjugate solution was added to the wells in order to detect bound biotinylated human IL-1RAcP. Incubation happened for 30 min with gentle agitation. Following the incubation with streptavidin-alkaline phosphatase conjugate, assay plates were washed 5× with PBS-T. Then 20 μl of AttoPhos substrate (diluted 1:5 in H₂O) was added to the wells. Plates were incubated for 10 min at RT and readout happened using a Tecan M1000 Pro Reader. […]

[22] = molecular target: T2, hIL-1RAP(1-367)_F-chLys_Avi; test: ELISA binning; competitor: coated Y024149 FabCys-AviHis (sheet title Y024149_FAB COATED); 1.5 nM biotinylated human IL-1RAcP (AG-12210) pre-incubated with the titrated Fab; captured IL-1RAcP detected with streptavidin-AP
Protocol: as §5, §6, §7

[23] = molecular target: T2, hIL-1RAP(1-367)_F-chLys_Avi; test: ELISA binning; competitor: coated Y024084 FabCys-AviHis (sheet title Y024084_FAB COATED); 1.5 nM biotinylated human IL-1RAcP (AG-12210) pre-incubated with the titrated Fab; captured IL-1RAcP detected with streptavidin-AP
Protocol: as §5, §6, §7

[24] = molecular target: T4, cyIL-1RAP(1-367)_F-chLys_Avi; test: SPR (Biacore), biotinylated antigen captured, FabCys-AviHis as analyte, 1:1 fit; comment: Koff at assay limit
Protocol: as §8

| EC50 (read off the curve) [1] [nM] | Kd [3] [nM] | Kd [5] [nM] | binding result [8] | binding result [9] | IC50, IFNγ release, PBMC stimulated with IL-1β (human IL-1RAcP on cells [10]) [nM] | IC50, IFNγ release, PBMC stimulated with IL-33 (human IL-1RAcP on cells [10]) [nM] | IC50, IL-8 release, HDFa stimulated with IL-1α (human IL-1RAcP on cells [10]) [nM] | IC50, IL-8 release, HDFa stimulated with IL-36α (human IL-1RAcP on cells [10]) [nM] | IC50, IL-8 release, HDFa stimulated with IL-36β (human IL-1RAcP on cells [10]) [nM] | IC50, IL-8 release, HDFa stimulated with IL-36γ (human IL-1RAcP on cells [10]) [nM] | IC50, IL-8 release, HEKa stimulated with IL-1β (human IL-1RAcP on cells [10]) [nM] | IC50, IL-8 release, HEKa stimulated with IL-36β (human IL-1RAcP on cells [10]) [nM] | IC50, IL-8 release, CyDFa stimulated with cynomolgus IL-1β [11] [nM] | IC50 (read off the curve) [18] [nM] | Kd [20] [nM] | also measured | Binder |
| --- | --- | --- | --- | --- | --- | --- | --- | --- | --- | --- | --- | --- | --- | --- | --- | --- | --- |
| ~4 | 0.011 | 0.015 | no binding (tested: 2e-7 M) | no binding (tested: 2e-7 M) | 5 | 1.8 | 24 | 0.05 | 0.15 | 0.067 | 162 | 0.12 | 0.48 |  |  | EC50 (read off the curve) [2]: 0.1 to 0.2 nM; EC50 (read off the curve) (human IL-1RAcP on cells [4]): ~2 nM; EC50 (read off the curve) [6]: 0.1 to 0.2 nM; binding result [7]: no binding (tested: 200 nM) | B1 |
| ~5 | 0.003 | 0.001 | no binding (tested: 2e-7 M) | no binding (tested: 2e-7 M) | 1.7 | 0.2 | 1.1 | 0.039 | 0.06 | 0.026 | 31 | 0.094 | 0.032 |  |  | IC50, IL-6 release, human whole blood stimulated with 1 ng/ml rhIL-1β (human IL-1RAcP on cells [12]): ~10 nM; IC50, IL-6 release, human whole blood stimulated with 5 ng/ml rhIL-1β (human IL-1RAcP on cells [12]): ~8 nM; IC50, IL-6 release, human whole blood stimulated with 10 ng/ml rhIL-1β (human IL-1RAcP on cells [12]): ~20 nM; IC50, IFN-γ release, cynomolgus whole blood stimulated with 300 ng/ml rcIL-33 [13]: ~15 nM; IC50, IL-6 release, cynomolgus whole blood stimulated with 50 ng/ml rcIL-1β [13]: ~50 nM; IC50, IL-6 release, cynomolgus whole blood stimulated with IL-1β [13]: ~70 nM; fold stronger KD than reference R001031 (CAN04) [14]: ~7 fold; fold stronger KD than reference R001032 (1A05) [14]: ~3.5 fold; fold stronger KD than reference R001031 (CAN04) [15]: ~16 fold; fold stronger KD than reference R001032 (1A05) [15]: ~15 fold; binding result (recombinant rat IL-1RAcP): no binding; EC50 (human IL-1RAcP on cells [16]): 1.48 nM; binding result [17]: no binding | B2 |
|  |  |  |  |  |  |  |  |  |  |  |  |  |  | ~1 | 0.018 | Kd [19]: 0.008 nM | B3 |
|  |  |  |  |  |  |  |  |  |  |  |  |  |  | ~1 | 0.025 | IC50 (read off the curve) [21]: ~0.7 nM; IC50 (read off the curve) [22]: ~0.7 nM; IC50 (read off the curve) [23]: ~0.7 nM; Kd [24]: 0.006 nM | B4 |
